Measured values published in patent US7183387 (Genentech, dated 2007).
Changes are numbered by the printed parent chain. Names may count otherwise. Values belong to the binder of their own block, whether it stands above or below them.

What was measured:
[1] = molecular target: T1, human neonatal Fc receptor (FcRn), biotinylated (human, UniProt P55899 24-297; P61769 21-119, biotinylated (biotin-X-NHS)); assay: FcRn ELISA, pH 6.0;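 further: Streptavidin-captured FcRn plates, IgG variants titrated 2 h at pH 6.0, peroxidase anti-human IgG read at 450 nm, variant over standard concentration at the standard curve mid-point absorbance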
T1 construct: captured on streptavidin plates
Description: FcRn Binding ELISA: For measuring FcRn binding activity of IgG variants, ELISA plates were coated with 2 µg/ml streptavidin (Zymed, South San Francisco) in 50 mM carbonate buffer, pH 9.6, at 4° C. overnight and blocked with PBS-0.5% BSA, pH 7.2 at room temperature for one hour. Biotinylated FcRn (prepared using biotin-X-NHS from Research Organics, Cleveland, Ohio and used at 1–2 µg/ml) in PBS-0.5% BSA, 0.05% polysorbate 20, pH 7.2, was added to the plate and incubated for one hour. Two fold serial dilutions of IgG standard (1.6–100 ng/ml) or variants in PBS-0.5% BSA, 0.05% polysorbate 20, pH 6.0, were added to the plate and incubated for two hours. Bound IgG was detected using peroxidase labeled goat F(ab')_2 anti-human IgG F(ab')_2 in the above pH 6.0 buffer (Jackson ImmunoResearch, West Grove, Pa.) followed by 3,3',5,5'-tetramethyl benzidine (Kirgaard & Perry Laboratories) as the substrate. Plates were washed between steps with PBS-0.05% TWEEN 20® at either pH 7.2 or 6.0. Absorbance was read at 450 nm on a Vmax plate reader (Molecular Devices, Menlo Park, Calif.). Titration curves were fit with a four-parameter nonlinear regression curve-fitting program (KaleidaGraph, Synergy software, Reading, Pa.). Concentrations of IgG variants corresponding to the mid-point absorbance of the titration curve of the standard were calculated and then divided by the concentration of the standard corresponding to the mid-point absorbance of the standard titration curve.

[2] = molecular target: T2, human FcγRIIB α subunit extracellular domain-His6-GST fusion (human, UniProt P31994 43-217); assay: hexamer ELISA
T2 construct: extracellular domain; also called CD32; not shown: glutathione S transferase (GST)
T2 sequence: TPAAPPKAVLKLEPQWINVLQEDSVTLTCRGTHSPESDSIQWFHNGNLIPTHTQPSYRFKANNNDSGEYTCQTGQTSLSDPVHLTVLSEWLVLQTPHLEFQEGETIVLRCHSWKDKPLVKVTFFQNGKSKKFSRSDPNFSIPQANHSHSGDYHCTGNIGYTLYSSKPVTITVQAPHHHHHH

[3] = molecular target: T3, human FcγRIIIA-Phe158 α subunit extracellular domain-His6-GST fusion (human, UniProt P08637 17-208); assay: hexamer ELISA
T3 construct: extracellular domain; also called FcγRIIIA-F158; CD16; not shown: glutathione S transferase (GST)

[4] = molecular target: T4, human FcγRIIA-Arg131 α subunit extracellular domain-His6-GST fusion (human, UniProt P12318 34-217); assay: hexamer ELISA
T4 construct: extracellular domain; also called FcγRIIA-R131; not shown: glutathione S transferase (GST)
T4 sequence: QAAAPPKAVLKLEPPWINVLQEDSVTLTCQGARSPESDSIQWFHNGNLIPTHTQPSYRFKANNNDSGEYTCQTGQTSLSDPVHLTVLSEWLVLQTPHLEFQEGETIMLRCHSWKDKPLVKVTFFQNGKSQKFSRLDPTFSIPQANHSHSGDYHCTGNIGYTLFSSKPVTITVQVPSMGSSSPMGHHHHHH

[5] = molecular target: T5, human FcγRIA α subunit extracellular domain-His6-GST fusion (human, UniProt P12314 16-292); assay: FcγRI ELISA and THP-1 cells, averaged
T5 construct: extracellular domain; also called GST-FcγRIA; CD64; not shown: glutathione S transferase (GST)

[6] = molecular target: T6, human FcγRIIA-His131 α subunit extracellular domain-His6-GST fusion (human, UniProt P12318 34-217); assay: hexamer ELISA
T6 construct: extracellular domain; also called FcγRIIA-H131; not shown: glutathione S transferase (GST)
T6 sequence: T4 sequence with R134H

[7] = molecular target: T7, human FcγRIIA-H131 α subunit extracellular domain-His6-GST fusion protein (human, UniProt P12318 34-217); assay: ELISA; binding ratio on FcγRIIA-H131 divided by that on FcγRIIA-R131
T7 construct: also called FcγRIIA-His131; not shown: glutathione S-transferase (GST)
T7 sequence: T4 sequence with R134H

[8] = molecular target: T7, human FcγRIIA-H131 α subunit …; assay: ELISA, IgG:IgE hexamer on coated FcγRIIA-H131-GST
[9] = molecular target: T8, human FcγRIIA-R131 α subunit extracellular domain-His6-GST fusion protein (human, UniProt P12318 34-217); assay: ELISA, IgG:IgE hexamer on coated FcγRIIA-R131-GST; separate assays run together with the H131 assays
T8 construct: ECD-6His-GST fusion made in 293 cells, coated on the plate; also called FcγRIIA-Arg131; not shown: glutathione S-transferase (GST)
T8 sequence: T4 sequence

[10] = molecular target: T8, human FcγRIIA-R131 α subunit …; assay: ELISA, IgG:IgE hexamer on coated FcγRIIA-R131-GST; value said to be carried over from Table 6, 7 or 8
[11] = molecular target: T1, human neonatal Fc receptor (FcRn), …; assay: FcRn ELISA (E27 background by paragraph 363)
[12] = molecular target: T2, human FcγRIIB α subunit extracellular …; assay: immune complex ELISA, E27 background
[13] = molecular target: T3, human FcγRIIIA-Phe158 α subunit …; assay: immune complex ELISA, E27 background
[14] = molecular target: T4, human FcγRIIA-Arg131 α subunit …; assay: immune complex ELISA, E27 background
[15] = molecular target: T5, human FcγRIA α subunit extracellular …; assay: FcγRI ELISA, E27 background
Description: Prior to assay, plates are washed 3× with 250 μl of wash buffer (PBS pH 7.4 containing 0.5% TWEEN 20™) and blocked with 250 μl of assay buffer (50 mM Tris buffered saline, 0.05% TWEEN 20™, 0.5% RIA grade bovine albumin (Sigma A7888), and 2 mM EDTA pH 7.4). Samples diluted to 10 μg/ml in 1 ml of assay buffer are added to FcγRI α subunit coated plates and incubated for 120 minutes at 25° C. on an orbital shaker. […] Plates are washed 5× with wash buffer to remove unbound HRP goat anti-human IgG and bound anti-IgG is detected by adding 100 μl of substrate solution (0.4 mg/ml o-phenylenedaimine dihydrochloride, Sigma P6912, 6 mM H_2O_2 in PBS) and incubating for 8 min at 25° C. Enzymatic reaction is stopped by the addition of 100 μl 4.5N H_2SO_4 and colorimetric product is measured at 490 nm on a 96 well plate densitometer (Molecular Devices). Binding of variant is expressed as a percent of the wild type molecule.

[16] = molecular target: T5, human FcγRIA α subunit extracellular …; assay: FcγRI ELISA and THP-1 cells, averaged (row shifted)
[17] = molecular target: T2, human FcγRIIB α subunit extracellular …; assay: hexamer ELISA (row shifted)
[18] = molecular target: T3, human FcγRIIIA-Phe158 α subunit …; assay: hexamer ELISA (row shifted)
[19] = molecular target: T4, human FcγRIIA-Arg131 α subunit …; assay: hexamer ELISA (row shifted)
[20] = molecular target: T3, human FcγRIIIA-Phe158 α subunit …; assay: hexamer ELISA; remark: listed apart in the source
[21] = molecular target: T1, human neonatal Fc receptor (FcRn), …; assay: FcRn ELISA
Description: FcRn Binding ELISA: For measuring FcRn binding activity of IgG variants, ELISA plates were coated with 2 µg/ml streptavidin (Zymed, South San Francisco) in 50 mM carbonate buffer, pH 9.6, at 4° C. overnight and blocked with PBS-0.5% BSA, pH 7.2 at room temperature for one hour. Biotinylated FcRn (prepared using biotin-X-NHS from Research Organics, Cleveland, Ohio and used at 1–2 µg/ml) in PBS-0.5% BSA, 0.05% polysorbate 20, pH 7.2, was added to the plate and incubated for one hour. Two fold serial dilutions of IgG standard (1.6–100 ng/ml) or variants in PBS-0.5% BSA, 0.05% polysorbate 20, pH 6.0, were added to the plate and incubated for two hours. Bound IgG was detected using peroxidase labeled goat F(ab')_2 anti-human IgG F(ab')_2 in the above pH 6.0 buffer (Jackson ImmunoResearch, West Grove, Pa.) followed by 3,3',5,5'-tetramethyl benzidine (Kirgaard & Perry Laboratories) as the substrate. […] Absorbance was read at 450 nm on a Vmax plate reader (Molecular Devices, Menlo Park, Calif.). Titration curves were fit with a four-parameter nonlinear regression curve-fitting program (KaleidaGraph, Synergy software, Reading, Pa.). Concentrations of IgG variants corresponding to the mid-point absorbance of the titration curve of the standard were calculated and then divided by the concentration of the standard corresponding to the mid-point absorbance of the standard titration curve.

[22] = molecular target: T9, human FcγRIIIA-Val158 α subunit extracellular domain-His6-GST fusion protein (human, UniProt P08637 17-208); assay: ELISA format, hexameric complex on FcγRIIIA-Val158
T9 construct: ELISA-format target; also called FcγRIIIA-V158; not shown: glutathione S-transferase (GST)

[23] = molecular target: T10, human FcγRIIIA-Phe158 α subunit extracellular domain-His6-GST fusion protein (human, UniProt P08637 17-208); assay: ELISA, IgG:IgE hexamer on coated FcγRIIIA-Phe158-GST; value carried over from an earlier table (printed in Table 8)
T10 construct: ELISA-format target; also called FcγRIIIA-F158; not shown: glutathione S-transferase (GST)

[24] = molecular target: T11, human FcγRIIIA-Phe158 with human γ-chain on stably transfected CHO cells (human, UniProt P08637 17-254; P30273 19-86); assay: flow cytometry, monomeric IgG on CHO cells with FcγRIIIA-Phe158 α- and γ-chains
T11 construct: whole, on cells; CHO cells stably transfected with the α- and γ-chains of the receptor; also called FcγRIIIA-Phe158 (cell-based assay)
Description: CHO cell transfection was carried out using Superfect (Qiagen) according to the manufacturer's instructions. […] Receptor expression levels were determined by staining with anti-FcγRIII monoclonal antibody 3G8 (Medarex). Binding of IgG1 variants was performed by adding monomeric IgG in staining buffer to 5×10^5 cells and incubating in 96 well round-bottom tissue culture plates (Costar, Cambridge, Mass.) at 4° C. for 30 min. Cells were washed three times with staining buffer and IgG binding detected by addition of 1:200 PE-F(ab')_2 fragment of goat anti-human IgG and incubation for 30 min at 4° C. After washing, immunofluorescence staining was analyzed on a FACScan flow cytometer using Cellquest software (Becton Dickinson). Dead cells were excluded from analysis by addition of 1 μg/ml propidium iodide.
For FcγRIIIA, the selected variants were assayed in the ELISA-format as well as on stable-transfected CHO cell lines expressing the γ-chains (FcγRIIIA-Phe158 or FcγRIIIA-Val158) with the associated human α-chain.

[25] = molecular target: T10, human FcγRIIIA-Phe158 α subunit …; assay: ELISA format, hexameric complex on FcγRIIIA-Phe158; separate assays run together with the Val158 assays
[26] = molecular target: T12, human FcγRIIIA-Val158 with human γ-chain on stably transfected CHO cells (human, UniProt P08637 17-254; P30273 19-86); assay: flow cytometry, monomeric IgG on CHO cells with FcγRIIIA-Val158 α- and γ-chains
T12 construct: whole, on cells; CHO cells stably transfected with the α- and γ-chains of the receptor; also called FcγRIIIA-Val158 (cell-based assay); FcγRIIIA-V158
T12 sequence (P08637 17-254 F176V, chain 1 of 2): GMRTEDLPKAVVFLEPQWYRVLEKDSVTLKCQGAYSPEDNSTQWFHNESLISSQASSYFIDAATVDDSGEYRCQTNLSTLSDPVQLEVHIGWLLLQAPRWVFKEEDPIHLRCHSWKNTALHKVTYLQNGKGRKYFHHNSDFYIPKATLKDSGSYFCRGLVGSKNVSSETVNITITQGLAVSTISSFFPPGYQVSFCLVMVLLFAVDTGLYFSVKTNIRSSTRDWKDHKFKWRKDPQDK
T12 sequence (P30273 19-86, chain 2 of 2): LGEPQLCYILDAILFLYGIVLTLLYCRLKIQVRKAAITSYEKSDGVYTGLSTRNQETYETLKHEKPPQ

T3 sequence (P08637 other isoform, or with tags, fused parts or gaps): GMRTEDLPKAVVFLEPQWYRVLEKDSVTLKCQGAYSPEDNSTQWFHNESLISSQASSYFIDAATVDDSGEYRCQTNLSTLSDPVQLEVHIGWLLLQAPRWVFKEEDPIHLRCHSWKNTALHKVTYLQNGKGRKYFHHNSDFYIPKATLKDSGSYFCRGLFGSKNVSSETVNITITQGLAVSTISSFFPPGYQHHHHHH
T5 sequence (P12314 other isoform, or with tags, fused parts or gaps): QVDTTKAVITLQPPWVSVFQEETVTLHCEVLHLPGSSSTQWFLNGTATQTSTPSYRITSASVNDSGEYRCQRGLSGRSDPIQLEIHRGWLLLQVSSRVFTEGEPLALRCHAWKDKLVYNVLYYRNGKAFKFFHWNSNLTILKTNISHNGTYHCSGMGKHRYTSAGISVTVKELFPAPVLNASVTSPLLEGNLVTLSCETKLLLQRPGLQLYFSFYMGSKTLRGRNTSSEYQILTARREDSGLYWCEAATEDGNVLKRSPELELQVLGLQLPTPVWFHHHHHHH
T10 sequence (P08637 other isoform, or with tags, fused parts or gaps, form in doubt): as the sequence (P08637 other isoform, or with tags, fused parts or gaps) above
T9 sequence (P08637 other isoform, or with tags, fused parts or gaps, form in doubt): as the sequence (P08637 other isoform, or with tags, fused parts or gaps) above, with F160V counted along it
T11 sequence (P08637 17-254, chain 1 of 2): as the sequence (P08637 17-254 F176V, chain 1 of 2) above, with V160F counted along it
T11 sequence (P30273 19-86, chain 2 of 2): as the sequence (P30273 19-86, chain 2 of 2) above

ratio to native IgG1 [1]: 1.05 ratio
ratio to native IgG1 [2]: 0.1 ratio
ratio to native IgG1 [3]: 0.14 ratio
ratio to native IgG1 [4]: 0.06 ratio
ratio to native IgG1 [5]: 0.76 ratio
reduction in binding against native IgG1 [6]: 50%
B1: anti-IgE E27 IgG1 Asp270Ala (antibody)
heavy: not shown
light: DIQLTQSPSSLSASVGDRVTITCRASKPVDGEGDSYLNWYQQKPGKAPKLLIYAASYLESGVPSRFSGSGSGTDFTLTISSLQPEDFATYYCQQSHEDPYTFGQGTKVEIKRTVAAPSVFIFPPSDEQLKSGTASVVCLLNNFYPREAKVQWKVDNALQSGNSQESVTEQDSKDSTYSLSSTLTLSKADYEKHKVYACEVTHQGLSSPVTKSFNRGEC
notes: also called D270(283)A

H131/R131 [7]: 1.1 ratio (H131 value/R131 value)
ratio of binding of the variant to that of native IgG1 [8]: 1.13 ratio (variant/native IgG1)
ratio of binding of the variant to that of native IgG1 [9]: 1.05 ratio (variant/native IgG1)
ratio of binding of the variant to that of native IgG1 [10]: 1.14 ratio (variant/native IgG1)
B2: anti-IgE E27 IgG1 variant Lys320Ala (antibody)
heavy: not shown
light: B1 light
notes: also called K320(339)A; IG2 48

binding result [11]: binds
percentage of the wild type [12]: 83%
percentage of the wild type [13]: 72%
percentage of the wild type [14]: 94%
percentage of the wild type [15]: 102%
B3: anti-IgE E27 IgG1 K320A (antibody)
heavy: not shown
light: B1 light

ratio to native IgG1 [1]: < 0.1 ratio
ratio to native IgG1 [16]: 1.25 ratio
ratio to native IgG1 [17]: 0.72 ratio
ratio to native IgG1 [18]: 0.78 ratio
ratio to native IgG1 [19]: 0.77 ratio
B4: anti-IgE E27 IgG1 His435Ala (antibody)
heavy: not shown
light: B1 light

binding result [20]: no binding
reduction in binding against native IgG1 [6]: 50%
B5: anti-IgE E27 IgG1 Ser267Gly (antibody)
heavy: not shown
light: B1 light

binding result [21]: binds
B6: anti-IgE E27 IgG1 T307Q (antibody)
heavy: not shown
light: B1 light

ratio to native IgG1 [1]: < 0.1 ratio
ratio to native IgG1 [16]: 0.96 ratio
ratio to native IgG1 [17]: 1.15 ratio
ratio to native IgG1 [18]: 0.73 ratio
ratio to native IgG1 [19]: 0.97 ratio
B7: anti-IgE E27 IgG1 Ser254Ala (antibody)
heavy: not shown
light: B1 light

ratio to native IgG1 [1]: < 0.1 ratio
ratio to native IgG1 [16]: 0.99 ratio
ratio to native IgG1 [17]: 0.91 ratio
ratio to native IgG1 [18]: 0.91 ratio
ratio to native IgG1 [19]: 0.93 ratio
B8: anti-IgE E27 IgG1 Tyr436Ala (antibody)
heavy: not shown
light: B1 light

ratio of binding of the variant to that of native IgG1 [22]: 1.11 ratio (variant/native IgG1)
ratio of binding of the variant to that of native IgG1 [23]: 1.51 ratio (variant/native IgG1)
ratio of binding of the variant to that of native IgG1 [24]: 3.42 ratio (variant/native IgG1)
ratio of binding of the variant to that of native IgG1 [25]: 2.17 ratio (variant/native IgG1)
ratio of binding of the variant to that of native IgG1 [26]: 1.65 ratio (variant/native IgG1)
B9: anti-IgE E27 IgG1 variant Ser298Ala/Glu333Ala/Lys334Ala (antibody)
heavy: EVQLVESGGGLVQPGGSLRLSCAVSGYSITSGYSWNWIRQAPGKGLEWVASIKYSGETKYNPSVKGRITISRDDSKNTFYLQMNSLRAEDTAVYYCARGSHYFGHWHFAVWGQGTLVTVSSASTKGPSVFPLAPSSKSTSGGTAALGCLVKDYFPEPVTVSWNSGALTSGVHTFPAVLQSSGLYSLSSVVTVPSSSLGTQTYICNVNHKPSNTKVDKKVEPKSCDKTHTCPPCPAPELLGGPSVFLFPPKPKDTLMISRTPEVTCVVVDVSHEDPEVKFNWYVDGVEVHNAKTKPREEQYNATYRVVSVLTVLHQDWLNGKEYKCKVSNKALPAPIAATISKAKGQPREPQVYTLPPSREEMTKNQVSLTCLVKGFYPSDIAVEWESNGQPENNYKTTPPVLDSDGSFFLYSKLTVDKSRWQQGNVFSCSVMHEALHNHYTQKSLSLSPGK
light: B1 light
notes: also called IG2 110

binding result [11]: binds
percentage of the wild type [12]: 106%
percentage of the wild type [13]: 104%
percentage of the wild type [14]: 113%
percentage of the wild type [15]: 93%
B10: anti-IgE E27 IgG1 E318A (antibody)
heavy: not shown
light: B1 light
notes: also called Glu318Ala
